Data reported in patent US20260116968A1 (CELLDEX THERAPEUTICS, published 2026).

T1: kappa-sCD40(1-94)-Flag mutant fragment B (multiple mutations of residues 13-15) (human, UniProt P25942 21-114)
T1 construct: also called B (13-15); not shown: The N-terminal human kappa light chain and the C-terminal Flag tag
T1 chain: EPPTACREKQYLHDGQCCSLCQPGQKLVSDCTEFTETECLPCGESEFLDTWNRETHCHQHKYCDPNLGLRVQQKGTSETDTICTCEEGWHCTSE

T2: kappa-sCD40(1-94)-Flag mutant fragment C (multiple mutations of residues 25, 26, 28 and 30) (human, UniProt P25942 21-114)
T2 construct: also called C (25, 26, 28, 30); not shown: The N-terminal human kappa light chain and the C-terminal Flag tag
T2 chain: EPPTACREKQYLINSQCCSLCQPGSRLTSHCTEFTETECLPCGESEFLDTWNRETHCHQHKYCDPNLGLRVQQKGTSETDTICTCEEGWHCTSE


Tests used:
[1] = molecular target: T3, human CD40 expressed on the cell surface (Raji cells, Ramos cells, human PBMC B cells, luciferase reporter … (human, UniProt P25942 21-277)); assay: flow cytometry on Raji and Ramos cells
T3 construct: also called CD40 on cells expressing human CD40
T3 sequence (P25942 21-277 limits assumed): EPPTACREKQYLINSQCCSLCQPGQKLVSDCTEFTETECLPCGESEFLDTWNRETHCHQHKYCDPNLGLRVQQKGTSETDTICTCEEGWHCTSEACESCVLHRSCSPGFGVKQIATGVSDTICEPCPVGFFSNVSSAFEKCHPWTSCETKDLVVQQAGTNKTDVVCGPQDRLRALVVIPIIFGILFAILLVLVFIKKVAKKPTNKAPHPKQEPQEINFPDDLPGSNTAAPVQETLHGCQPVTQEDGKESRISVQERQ
Description: Antibodies from Example 1 were tested for binding to human cell lines expressing human CD40 on their surface. […] After 20 minutes, the cells were washed with PBS containing 0.1% BSA and 0.05% NaN3 (PBA) and the bound antibodies were detected by incubating the cells with a PE labeled goat anti-human IgG Fc-specific probe. The excess probe was washed from the cells with PBA and the cell associated fluorescence was determined by analysis using a FACSCanto II™ instrument (BD Biosciences, NJ, USA) according to the manufacturer's directions.

[2] = molecular target: T1, kappa-sCD40(1-94)-Flag mutant fragment …; assay: ELISA, kappa-sCD40-Flag captured by anti-Flag, anti-human IgG Fc-HRP detection
Description: (§1) 1 μg/ml of purified kappa-sCD40-Flag fusion proteins or CHO cell supernatants containing the sCD40 fusion proteins were captured to microtiter plates that were pre-coated with 5 μg/ml mouse anti-Flag antibody (Sigma) in PBS and blocked with 5% bovine serum albumin in PBS. Following incubation with the CD40 antibody, the microplates were washed with PBS/Tween, and incubated with a goat anti-human IgG Fc polyclonal reagent conjugated to horseradish peroxidase. After washing, the plates were developed with HRP substrate, and analyzed at OD 450-650 using a microtiter plate reader. An ELISA with a goat anti-human IgG Fab2-HRP to measure kappa chain binding was carried out in parallel to validate the sCD40 fusion protein expression from different transfections.

[3] = molecular target: T2, kappa-sCD40(1-94)-Flag mutant fragment …; assay: as above
Description: as §1

[4] = molecular target: T1, kappa-sCD40(1-94)-Flag mutant fragment …; assay: ELISA, kappa-sCD40-Flag (~2 ug/ml) captured by anti-Flag, anti-human IgG Fc-HRP detection
Description: as §1, with “containing” for “1 μg/ml of purified kappa-sCD40-Flag fusion proteins or CHO cell supernatants containing”

[5] = molecular target: T2, kappa-sCD40(1-94)-Flag mutant fragment …; assay: as above
Description: as §1, with “containing” for “1 μg/ml of purified kappa-sCD40-Flag fusion proteins or CHO cell supernatants containing”

Row | Binder | binding result [1] | Average OD [2] | Average OD [3] | OD [4] | OD [5]
1 | anti-CD40 human monoclonal antibody 3C3 (antibody, human IgG2, kappa, V domains shown, Full chains with leader removed; human IgG2 constant domain with C-terminal lysine removed; also called anti-CD40 mAb 3C3; CD40 antibody 3C3) VH: QVQLVESGGGVVQPGRSLRLSCAGSGFIFSRYGMYWVRQAPGKGLEWVAVIWYDGSYKYYADSVKGRFTISRDNSKNTLYLQMNSLRAEDTAVYYCARESPWYYFDYWGQGTLVTVSS VL: DIQMTQSPSSLSASVGDRVTITCRASQGISNYLAWYQQKPGKVPKLLIYAASTLQSGVPSRFSGSGSGTDFTLTISSLQPEDVATYYCQKYKSAPFTFGPGTKVDIKR |  | 2.03 OD 450-650 | 1.49 OD 450-650 | 2.38 OD 450-650 | 2.02 OD 450-650
2 | anti-CD40 human monoclonal antibody 1B4 (antibody, human IgG2, V domains shown, Human IgG2) VH: EVQLLESGGGLVQPGGSLRLSCAASGFTFSSYAMTWVRQVPGKGLEWVSGITGSGANTFYTDSVKGRFTISRDNSNNSLYLQMNSLRADDTAVYYCAKRNGGSYYYYYGMDVWGQGTTVTVSS VL: not shown | binds |  |  |  | 

Results, then the binder that gave them:

Row | binding result [1] | Average OD [2] | Average OD [3] | OD [4] | OD [5] | Binder
3 | binds |  |  |  |  | anti-CD40 human monoclonal antibody 6H6 (antibody, human IgG2, V domains shown, Human IgG2) VH: QVQLVESGGGVVQPGRSLRFSCAASGFTLSSYGMHWVRQAPGKGLEWVAVIWDDGSNKYYADSVKGRFTISRDNSKNTLYLQMNSLRAEDTAVYYCARAGGSGRYYNYFDYWGQGTLVTVSS VL: EIVMTQSPATLSVSPGERATLSCRASQSVRSNLAWYQQKPGQAPRLLIYGASTRATGIPARFSGSGSGTDFTLTISSLQSEDFAVYYCQQHNNWLTFGGGTKVEIK
4 | binds |  |  |  |  | anti-CD40 human monoclonal antibody 3B6 (antibody, human IgG2, V domains shown, Human IgG2) VH: EVQLLESGGGLVQPGGSLRLSCAASGFTFSSYAMSWVRQAPGKGLEWVSGITGTGGSTYYADSVKGRFTISRDNSKNTLYVQMNSLRAEDTAVYYCAKRAGGSFYYYYGMDVWGQGTTVTVSS VL: DIVMTQSPLSLPVTPGEPASISCRSSQSLLHSTGYNYLDWYLQKPGQSPQLLIYLGSNRASGVPDRFNGSGSGTDFTLKISRVEAEDFGVYYCMQALQTPWTFGHGTKVEIK
